The data set deals with the molecule itself. Put plainly: ThT fluorescence + AFM.

For the protein GAVVYSGSLYFQ [peptide P1 (G326AVVYSGSLYFQ) of myoc-OLF], the binding result is recorded as “binds”.
Turning to VANAFIICGTLYTVSSY [peptide P3 (V426ANAFIICGTLYTVSSY) of myoc-OLF], the binding result is given as “binds”.

Source of the values: PMC3946817 (Journal of molecular biology, 2013).
